The target of this assay is Full-length human AURKA^T288V (human) (UniProt O14965). The assay can be described thus: fluorescence polarisation; competitive displacement: 5 nM FITC-Tpx2^1–43 and 35 nM AURKA kept constant, unlabeled competitor (Bora or Tpx2) varied; 25 mM HEPES pH 7.5, 50 mM NaCl, 10 mM MgCl2, 0.1 mg/mL BSA, 0.01% Brij, 3 mM ADP, 2 mM DTT. A general note: In fluorescence polarisation assays a small probe gives low polarisation when free and higher when bound to something large.
Chain of Full-length human AURKA^T288V (human) (O14965 other isoform, or with tags, fused parts or gaps T288V | T288V): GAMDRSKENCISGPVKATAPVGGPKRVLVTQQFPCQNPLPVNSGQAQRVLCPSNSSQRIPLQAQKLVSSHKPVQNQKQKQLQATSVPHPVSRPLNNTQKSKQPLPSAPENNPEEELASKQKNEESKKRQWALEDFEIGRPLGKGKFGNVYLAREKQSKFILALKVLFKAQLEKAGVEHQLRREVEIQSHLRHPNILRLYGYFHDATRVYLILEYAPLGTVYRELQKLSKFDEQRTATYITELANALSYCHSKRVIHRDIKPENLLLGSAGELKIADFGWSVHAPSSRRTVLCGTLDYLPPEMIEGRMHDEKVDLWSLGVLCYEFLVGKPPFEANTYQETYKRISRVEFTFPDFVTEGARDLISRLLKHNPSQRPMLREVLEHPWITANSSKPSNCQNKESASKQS

“pBora^18–120 (from UniProt Q6PGQ7 18-120) (domain or fragment)” came in with a fold less efficient displacement of FITC-Tpx2^1–43 than pBora^1–224 of 20 fold.

The record behind these values is PMC7997955.
